Results: paper PMC7980222, “Neuronal non-CG methylation is an essential target for MeCP2 function”

Legend:
MeCP2[MBD] [1] = target: T1, MeCP2[MBD] (mouse (fragment sequence identical in …, UniProt Q9Z2D6 77-167)); test: BLI; poly(dI-dC) 1 ug/ml; BLI: 150 mM NaCl, 10 mM HEPES pH 8.0, 0.05% Tween20, poly(dI-dC) 1 ug/ml; MBD2 EMSA: 20 mM HEPES pH 7.9, 150 mM KCl, 8% Ficoll, 1 mM EDTA, 0.5 mM DTT, poly(dI-dC) 40 ng/ul, RT; N-term EMSA: 10 mM Tris-HCl pH 7.5, 150 mM KCl, 5% glycerol, 0.1 mM EDTA, 0.1 mg/ml BSA, 1 ug poly(dA-dT), on ice; pull-down at 4 C; settings: protein: recombinant; tags: pET28 (NdeI/EcoRI), His tag (Ni-NTA purified; tag removal not mentioned); label: 5'-biotin on strand 1; 19 bp, 5' overhang 1 nt each end
MM2[N-term] = MM2[N-term] (mouse, UniProt Q9Z2D6 1-93+Q9Z2E1:153-217+165-205, internal_change); test: EMSA; 0-4.5 uM protein; BLI: 150 mM NaCl, 10 mM HEPES pH 8.0, 0.05% Tween20, poly(dI-dC) 1 ug/ml; MBD2 EMSA: 20 mM HEPES pH 7.9, 150 mM KCl, 8% Ficoll, 1 mM EDTA, 0.5 mM DTT, poly(dI-dC) 40 ng/ul, RT; N-term EMSA: 10 mM Tris-HCl pH 7.5, 150 mM KCl, 5% glycerol, 0.1 mM EDTA, 0.1 mg/ml BSA, 1 ug poly(dA-dT), on ice; pull-down at 4 C; settings: protein: recombinant; tags: C-terminal 6xHis; label: 32P (T4 PNK); blunt
MeCP2[N-term] WT [2] = target: T2, MeCP2[N-term] WT (mouse, UniProt Q9Z2D6 1-205); test: EMSA; 0-4.5 uM protein; not different from mCG (p = 0.613); BLI: 150 mM NaCl, 10 mM HEPES pH 8.0, 0.05% Tween20, poly(dI-dC) 1 ug/ml; MBD2 EMSA: 20 mM HEPES pH 7.9, 150 mM KCl, 8% Ficoll, 1 mM EDTA, 0.5 mM DTT, poly(dI-dC) 40 ng/ul, RT; N-term EMSA: 10 mM Tris-HCl pH 7.5, 150 mM KCl, 5% glycerol, 0.1 mM EDTA, 0.1 mg/ml BSA, 1 ug poly(dA-dT), on ice; pull-down at 4 C; settings: protein: recombinant; tags: C-terminal 6xHis; label: 32P (T4 PNK); blunt
MeCP2[MBD] [3] = target: T1, MeCP2[MBD]; test: BLI; poly(dI-dC) 1 ug/ml; main text prints 63.17; BLI: 150 mM NaCl, 10 mM HEPES pH 8.0, 0.05% Tween20, poly(dI-dC) 1 ug/ml; MBD2 EMSA: 20 mM HEPES pH 7.9, 150 mM KCl, 8% Ficoll, 1 mM EDTA, 0.5 mM DTT, poly(dI-dC) 40 ng/ul, RT; N-term EMSA: 10 mM Tris-HCl pH 7.5, 150 mM KCl, 5% glycerol, 0.1 mM EDTA, 0.1 mg/ml BSA, 1 ug poly(dA-dT), on ice; pull-down at 4 C; settings: protein: recombinant; tags: pET28 (NdeI/EcoRI), His tag (Ni-NTA purified; tag removal not mentioned); label: 5'-biotin on strand 1; 19 bp, 5' overhang 1 nt each end
MBD2[MBD] = MBD2[MBD] (human, UniProt Q9UBB5 139-224); test: EMSA; 2 uM protein; poly(dI-dC); BLI: 150 mM NaCl, 10 mM HEPES pH 8.0, 0.05% Tween20, poly(dI-dC) 1 ug/ml; MBD2 EMSA: 20 mM HEPES pH 7.9, 150 mM KCl, 8% Ficoll, 1 mM EDTA, 0.5 mM DTT, poly(dI-dC) 40 ng/ul, RT; N-term EMSA: 10 mM Tris-HCl pH 7.5, 150 mM KCl, 5% glycerol, 0.1 mM EDTA, 0.1 mg/ml BSA, 1 ug poly(dA-dT), on ice; pull-down at 4 C; settings: protein: recombinant; tags: N-terminal His6 removed by TEV; residual N-terminal SM; label: 5'-FAM on strand 1; 19 bp, 5' overhang 1 nt each end
MeCP2[N-term] WT [4] = target: T2, MeCP2[N-term] WT; test: EMSA; 0-4.5 uM protein; BLI: 150 mM NaCl, 10 mM HEPES pH 8.0, 0.05% Tween20, poly(dI-dC) 1 ug/ml; MBD2 EMSA: 20 mM HEPES pH 7.9, 150 mM KCl, 8% Ficoll, 1 mM EDTA, 0.5 mM DTT, poly(dI-dC) 40 ng/ul, RT; N-term EMSA: 10 mM Tris-HCl pH 7.5, 150 mM KCl, 5% glycerol, 0.1 mM EDTA, 0.1 mg/ml BSA, 1 ug poly(dA-dT), on ice; pull-down at 4 C; settings: protein: recombinant; tags: C-terminal 6xHis; label: 32P (T4 PNK); blunt

Sequence of MBD2[MBD] (Q9UBB5 139-224): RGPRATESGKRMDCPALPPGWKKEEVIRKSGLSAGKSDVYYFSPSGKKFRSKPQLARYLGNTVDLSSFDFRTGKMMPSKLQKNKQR

B1: BLI mCG probe (dsDNA)
DNA 1: TCTGGAACGGAATTCTTCTA
DNA 2: ATAGAAGAATTCCGTTCCAG
modifications: 5mC at CG: C8 of strand 1 and probably C13 of strand 2 (underlining lost in text)
MeCP2[MBD] [1]
  Kd: 22.2 nM

B2: BLI mCAC probe (dsDNA)
DNA 1: TCTGGAACACAATTCTTCTA
DNA 2: ATAGAAGAATTGTGTTCCAG
modifications: 5mC at CAC: C8 of strand 1 (underlining lost in text)
MeCP2[MBD] [1]
  Kd: 13.9 nM

B3: Bdnf mCAC probe (dsDNA)
DNA 1: AAGCATGCAATGCCCTGGAACACAATTCTTCTAATAAAAGATGTATCATTTTAAATGC
DNA 2: GCATTTAAAATGATACATCTTTTATTAGAAGAATTGTGTTCCAGGGCATTGCATGCTT
modifications: 5mC at central CAC: C21 of strand 1 (underlining lost in text)
MM2[N-term]
  binding result: no binding
MeCP2[N-term] WT [2]
  binding result: binds

B4: BLI mCAT probe (dsDNA)
DNA 1: TCTGGAACATAATTCTTCTA
DNA 2: ATAGAAGAATTATGTTCCAG
modifications: 5mC at CAT: C8 of strand 1 (underlining lost in text)
MeCP2[MBD] [3]
  Kd: 63.7 nM

B5: FAM mCG probe (dsDNA)
DNA 1: TCTGGAACGGAATTCTTCTA
DNA 2: ATAGAAGAATTCCGTTCCAG
modifications: 5mC at CG: C8 of strand 1 and probably C13 of strand 2 (underlining lost in text)
MBD2[MBD]
  binding result: binds

B6: Bdnf mCG probe (dsDNA)
DNA 1: AAGCATGCAATGCCCTGGAACGGAATTCTTCTAATAAAAGATGTATCATTTTAAATGC
DNA 2: GCATTTAAAATGATACATCTTTTATTAGAAGAATTCCGTTCCAGGGCATTGCATGCTT
modifications: 5mC at central CG: C21 of strand 1 and probably C37 of strand 2 (underlining lost in text)
MeCP2[N-term] WT [4]
  binding result: binds
